Assay results from the nanobody polyreactivity screen of Harvey et al. (2022).

Experiment: yeast display, Sf9 membrane polyspecificity reagent, FACS + sequencing; frameworks hold sequencing errors
Summary of the method: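 Sorting gates, low and high (top ~1%), were placed on anti-HA fluorescence to track expression and on streptavidin fluorescence to track reagent binding. A clone's polyreactivity label is taken from the gate it came out of. The reagent was 10% biotinylated, detergent-solubilized Sf9 membrane, applied for 1 hour at 4 °C to galactose-induced yeast display cells.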

Sequence | polyreactivity (PSR sort gate)
QVQLVESGGGLVQAGGSLRLSCAASGRTFSYYAMGWYRQAPGKERELVAVITSSGGSTSYADSVKGRFTISRDNAKNTVYLQMNSLKPEDTAVYYCAADPLAVSWAYYLFGVDYWGQGTQVTVSS | high polyreactivity
QVQLVESGGGLVQAGGSLRLSCAASGRTFSYYGMGWYRQAPGKERELVAAITNSVGRTYYADSVKGRFTISRDNEKNTVYLHMNSLKPEDTAVYYCKKYGRYYYWGQGTQVTVSS | low polyreactivity
QVQLVESGGGLVQAGGSLRLSCAASGRTFTAYAMGWYRQAPGKERELVAAISVGGGSTYYADSVKGRFTISRDNAKNTVYLQMNSLKPEDTAVYYCAADRSYYLDGYDYWGQGTQVTVSS | low polyreactivity
QVQLVESGGGLVQAGGSLRLSCAASGRTFTFYTMGWYRQAPGKERELVAAITRSGGGTYYADSVKGRFTISRDNAKNTVYLQMNSLKPEDTAVYYCAAYNRNAFHWGQGTQVTVSS | high polyreactivity
QVQLVESGGGLVQAGGSLRLSCAASGRTFTGNALGWYRQAPGKERELVAAISQRGGRTNYADSVKGRFTISRDNAKNTVYLQMNSLKPEDTAVYYCAADLGYYYFFGSNYAYDYWGQGTQVNVSS | low polyreactivity
QVQLVESGGGLVQAGGSLRLSCAASGRTFTGYAMGWYRQAPGKEREFVAAITQRGGSTYYADSVKGRFTISRDTAKNTVYLQMNSLKPEDTAVYYCAARRRYKMDYWGQGTQVTVSS | high polyreactivity
QVQLVESGGGLVQAGGSLRLSCAASGRTFTHYDMGWYRQAPGKERELVAAISSGCGTYYADSVKGRFTISRDNAKNTVYLQMNSLKPEDTAVYYCNADYTNYHDPFRTYGYWGQGTQVTVSS | low polyreactivity
QVQLVESGGGLVQAGGSLRLSCAASGRTFTINGMGWYRQAPGKERELVAGINWRDGRTYYADSVKGRFTISRDNAKNTVYLQMNSLKPEDTAVYYCNVEVAESFDYWVQGTQVTVSS | low polyreactivity
QVQLVESGGGLVQAGGSLRLSCAASGRTFTIYAMGWYRQAPGKEREFVASITGSDGSTYYADSVKGRFTISRDNAKNTVYLQMNSLKPEDTAVYYCAAKRYVYPSYRFDYWGQGTQVTVSS | low polyreactivity
QVQLVESGGGLVQAGGSLRLSCAASGRTFTIYTMGWYRQAPGKERELVAAISRGGRTNYADSVKGRFTISRDNAKNTVYLQMNSLKPEDTAVYYCNADGSRYYTAYRLRLPYDYWGQGTQVTVSS | high polyreactivity
QVQLVESGGGLVQAGGSLRLSCAASGRTFTLYAMGWYRQAPGKERELVASITTGGRTYYADSVKGRFTISRDNAKNTVYLKMNSLKPEDTAVYYCNADRVYAWYRTYEYWGQGTEVTVSS | high polyreactivity
QVQLVESGGGLVQAGGSLRLSCAASGRTFTPYAMGWYRQAPGKERELVAAINSDGSTNYADSVKGRFTISRDNAKNTVYLQMNSLKPEDTAVYYCAAGYSLEGDYWGQGTQVTVSS | low polyreactivity
QVQLVESGGGLVQAGGSLRLSCAASGRTFTQYAMGWYRQAPGKERELVARISYSGGTTYYADSVKGRFTISRDNAKNTVYLQMNSLKPEDTAVYYCARDYYGSVRFDHWGQGTQVTVSS | high polyreactivity
QVQLVESGGGLVQAGGSLRLSCAASGRTFTQYAMGWYRQAPGKEREMVAAISWRGGSTYYADSVKGRFTISRDNAKNTVYVQMNSLKPEDTAVSYCAKRYFRGYPLYDYWGQGTQVTVSS | high polyreactivity
QVQLVESGGGLVQAGGSLRLSCAASGRTFTQYAMRWYRQAPGKERELVAAISWRGGSTYYADSVKGRFTISRDNAKNTVYLQMNSLKPEDTAVYYCAKRYFRGYPLYDYWGQGTQVTVSS | high polyreactivity
QVQLVESGGGLVQAGGSLRLSCAASGRTFTRYAMGRYRQAPGKERELVASISGSGGRTNYADSVKGRFTISRDNAKNTVYLQMNSLKPEDTAVYYCAARYRTWFGYWGQGTQVTVSS | high polyreactivity

Sequence | polyreactivity (PSR sort gate)
QVQLVESGGGLVQAGGSLRLSCAASGRTFTRYAMGWYRQAPGKERELVAAISWSGGSTYYADSVKGRFTISRDNAKNTVYLQMNSLKPEDTAVYYCNAYYYYPEFNYWGQGTQVTVSS | high polyreactivity
QVQLVESGGGLVQAGGSLRLSCAASGRTFTSYAMGWYRQAPGKERELVAAITRGGRTNYADSVKGRFTISRDNAQNTVYLQMNSLKPEDTAVYYCNADGPGYAAKYYWKYDYWGQVTQVTVSS | low polyreactivity
QVQLVESGGGLVQAGGSLRLSCAASGRTFTSYPMGWYRQAPGKERELVAVITRRGGSTSYADSVKGRFTISRDNAKHTVYLQMNSLKPEDTAVYYCAAKRTWPDVKYIRYGYWGQGTQVTVSS | high polyreactivity
QVQLVESGGGLVQAGGSLRLSCAASGRTFTTNAMGWYSQARGKERELVAAINSGGSTNYADSVKGRFTISRDNAKNTVYLQMNRLKPEDTAVYYCAKRQRDYSSVFEVDYWGQGTQVTVSS | low polyreactivity
QVQLVESGGGLVQAGGSLRLSCAASGRTFTTYAMGWYRQAPGKERELVAAISGSGGSTYYADSVKGRFTISRDNAKNTVYLQMNSLKPEDTAVYYCATAYYYHGGYYYPYDDYWGQGTQVTVSS | low polyreactivity
QVQLVESGGGLVQAGGSLRLSCAASGRTFTTYAMGWYRQAPGKERELVAAITSGGSTNYADSVKGRFTISRDNAKNTVYLQMNSLKPEDTAVYYCAARFRVYTYSQRHWREFGYWGQGTQVTVSS | high polyreactivity
QVQLVESGGGLVQAGGSLRLSCAASGRTFTTYTMGWYRQAPGKERELVAAISWGGTSTYYADSVKGRFTISRDNAKNTVYLQMNSLKPDDTAVYYCNVLERGPGGPDDSWGQGTQVTVSS | low polyreactivity
QVQLVESGGGLVQAGGSLRLSCAASGRTFTVNAMGWYRQAPGKEREFVATISYRGGSTYADSVKGRFTISRDNAKNNVYLQMNSLKPEDTAVYYCAARSFWPYYGGDYDYWGQGNQVTVSS | high polyreactivity
QVQLVESGGGLVQAGGSLRLSCAASGRTFTVYAMGGSRQAPGKERELVAGIRRGDSTYYADSVKGRFTISRDNAKNSVDFQMNSLKPEDTAVYYCNARSSGRSYYYWGQGTQVTVSS | high polyreactivity
QVQLVESGGGLVQAGGSLRLSCAASGRTFTVYAMGWYRQAPGKEREFVATISWSGGRTYYADSVKGRFTISRDNAKNTVYLQMNSLKPEDTAVYYCSAQEYTTRFYFNRDYWGQGTQVTVSS | low polyreactivity
QVQLVESGGGLVQAGGSLRLSCAASGRTFTVYTMGWYRQAPGKERELVAVISTGGRTYYADSVKGRFTISRDNAMNTVYLQMNSLKPEDTAVYYCAAKFTREYYWGQGTQVTVSS | high polyreactivity
QVQLVESGGGLVQAGGSLRLSCAASGRTFTWNAMGWYRQAPGKERELVADITNNGGSTYYADSVKGRFTISRDNAKNTVYLQMNSLKPEDTAVYYCAKRRNYWFSFDYWGQGTQVTVSS | low polyreactivity
QVQLVESGGGLVQAGGSLRLSCAASGRTFTYNAMGWYRQAPGKERELVAAITYRGGSTYYADSVKGRFTISRDNSNNTVYLQMNSLKPEDTAVYYCAASVSYYRYNTPHYYYWGQGTQVTVSS | high polyreactivity
QVQLVESGGGLVQAGGSLRLSCAASGRTFTYNAMGWYRQAPGKERELVASIRRSGTITYYADSVKGRFTISRDNAKNTVYLQMNSLKPEDTAVYYCAARYPWYRYYSWGQGTQVTVSS | high polyreactivity
QVQLVESGGGLVQAGGSLRLSCAASGRTFTYNTMGWYRQAPGKERELVAAISSRGGRTYYADSVKGRFTISRDNAKNTVYLQMNSLKPEDTAVYYCNADYRYPQYYHRTWIRYDYWGQGTQVTVSS | high polyreactivity
QVQLVESGGGLVQAGGSLRLSCAASGRTFTYNTMGWYRQAPGKERELVAAISSSGGSTYYADSVKGRFTISRDNAKNTVYLQMNSLKPEDTAVYYCAKRYFSSSRYYYWGQGTQVTVSS | high polyreactivity
